{
  "source": "patent US20120316071A1",
  "about": "(published 2012)",
  "binders": {"B1": {"name": "Fab VH1-46_IGHD6-6*01_IGHJ1*01 S102A/S103P/S104F/H111F (APFF) & L6_IGKJ1*01 S28G (Fab, V domains shown)", "VH": "QVQLVQSGAEVKKPGASVKVSCKASGYTFTSYYMHWVRQAPGQGLEWMGIINPSGGSTSYAQKFQGRVTMTRDTSTSTVYMELSSLRSEDTAVYYCAREEYAPFSAEYFQFWGQGTLVTVSS", "VL": "EIVLTQSPATLSLSPGERATLSCRASQGVSSYLAWYQQKPGQAPRLLIYDASNRATGIPARFSGSGSGTDFTLTISSLEPEDFAVYYCQQRSNWPPWTFGQGTKVEIKR", "notes": "Fab made in E. coli; the variable domains were cloned into Plasmid A (CH1, His and Flag tags) and Plasmid C (kappa CL); also called APFF / S28G"}, "B2": {"name": "Fab VH1-46_IGHD6-6*01_IGHJ1*01 S102A/S103P/S104F/H111F (APFF) & L6_IGKJ1*01 S28A (Fab, V domains shown)", "VH": "B1 VH", "VL": "B1 VL with G28A", "notes": "Fab made in E. coli; the variable domains were cloned into Plasmid A (CH1, His and Flag tags) and Plasmid C (kappa CL); also called APFF / S28A"}, "B3": {"name": "Fab VH1-46_IGHD6-6*01_IGHJ1*01 S102A/S103P/S104F/H111F (APFF) & L6_IGKJ1*01 (Fab, V domains shown)", "VH": "B1 VH", "VL": "not shown", "notes": "Fab made in E. coli; the variable domains were cloned into Plasmid A (CH1, His and Flag tags) and Plasmid C (kappa CL); also called APFF / parent; H:APFF & L:wt"}, "B4": {"name": "Fab VH1-46_IGHD6-6*01_IGHJ1*01 S102A/S103P/S104F/H111F (APFF) & L6_IGKJ1*01 S28K (Fab, V domains shown)", "VH": "B1 VH", "VL": "B1 VL with G28K", "notes": "Fab made in E. coli; the variable domains were cloned into Plasmid A (CH1, His and Flag tags) and Plasmid C (kappa CL); also called APFF / S28K"}, "B5": {"name": "Fab VH1-46_IGHD6-6*01_IGHJ1*01 S102A/S103P/S104F/H111F (APFF) & L6_IGKJ1*01 S28F (Fab, V domains shown)", "VH": "B1 VH", "VL": "B1 VL with G28F", "notes": "Fab made in E. coli; the variable domains were cloned into Plasmid A (CH1, His and Flag tags) and Plasmid C (kappa CL); also called APFF / S28F"}, "B6": {"name": "Fab VH1-46_IGHD6-6*01_IGHJ1*01 S102A/S103P/S104F/H111F (APFF) & L6_IGKJ1*01 S28L (Fab, V domains shown)", "VH": "B1 VH", "VL": "B1 VL with G28L", "notes": "Fab made in E. coli; the variable domains were cloned into Plasmid A (CH1, His and Flag tags) and Plasmid C (kappa CL); also called APFF / S28L"}, "B7": {"name": "Fab VH1-46_IGHD6-6*01_IGHJ1*01 S102A/S103P/S104F/H111F (APFF) & L6_IGKJ1*01 S28P (Fab, V domains shown)", "VH": "B1 VH", "VL": "B1 VL with G28P", "notes": "Fab made in E. coli; the variable domains were cloned into Plasmid A (CH1, His and Flag tags) and Plasmid C (kappa CL); also called APFF / S28P"}},
  "note": "Substitutions are numbered along the chain they refer to. Numbers in names are those of the source.",
  "data": [
    {"molecular_target": "T1, rHuman EGF R/Fc Chimera, CF (human, UniProt P00533 25-645)", "T1 construct": "Bought from R&D Systems; also called epidermal growth factor receptor; not shown: Fc of the bought chimera", "assay": "ECL Multispot (MSD) assay; antigen spotted on plate, Fab in solution;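 note: fab bound 1 h at 20 °C, detected by TAG-labelled antibody electrochemiluminescence, signal relative to each well's blank, ratio of 4 or more marks a hit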", "values": [
      {"binder": "B1", "ECL signal": 360},
      {"binder": "B2", "ECL signal": 351},
      {"binder": "B3", "ECL signal": 406},
      {"binder": "B4", "ECL signal": 386},
      {"binder": "B5", "ECL signal": 283},
      {"binder": "B6", "ECL signal": 378},
      {"binder": "B7", "ECL signal": 370}
    ]},
    {"molecular_target": "T2, rHuman Erythropoietin R/Fc Chimera, CF (human, UniProt P19235 25-250)", "T2 construct": "Bought from R&D Systems; also called EPO R; EPO R/Fc; not shown: Fc of the bought chimera", "T2 sequence (looked up)": "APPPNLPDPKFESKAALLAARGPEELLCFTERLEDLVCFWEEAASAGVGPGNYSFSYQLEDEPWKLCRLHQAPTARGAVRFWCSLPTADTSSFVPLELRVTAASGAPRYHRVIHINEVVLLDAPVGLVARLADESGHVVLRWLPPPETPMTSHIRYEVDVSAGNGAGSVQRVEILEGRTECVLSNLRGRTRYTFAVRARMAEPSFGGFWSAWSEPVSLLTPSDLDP", "assay": "ECL Multispot (MSD) assay; antigen spotted on plate, Fab in solution;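 note: fab bound 1 h at 20 °C, detected by TAG-labelled antibody electrochemiluminescence, signal relative to each well's blank, ratio of 4 or more marks a hit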", "values": [
      {"binder": "B1", "ECL signal": 494},
      {"binder": "B2", "ECL signal": 424},
      {"binder": "B4", "ECL signal": 477},
      {"binder": "B5", "ECL signal": 413},
      {"binder": "B6", "ECL signal": 404},
      {"binder": "B7", "ECL signal": 492}
    ]},
    {"molecular_target": "T3, rHuman Notch-1/Fc Chimera, CF (human, UniProt P46531 19-526)", "T3 construct": "Bought from R&D Systems; not shown: Fc of the bought chimera", "assay": "ECL Multispot (MSD) assay; antigen spotted on plate, Fab in solution;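 note: fab bound 1 h at 20 °C, detected by TAG-labelled antibody electrochemiluminescence, signal relative to each well's blank, ratio of 4 or more marks a hit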", "values": [
      {"binder": "B1", "ECL signal": 324},
      {"binder": "B2", "ECL signal": 440},
      {"binder": "B4", "ECL signal": 395},
      {"binder": "B5", "ECL signal": 367},
      {"binder": "B6", "ECL signal": 392},
      {"binder": "B7", "ECL signal": 416}
    ]},
    {"molecular_target": "T4, rHuman HGF R/c-MET/Fc Chimera, CF (human, UniProt P08581 25-932)", "T4 construct": "Bought from R&D Systems; also called HGF R/Fc; hepatocyte growth factor receptor; not shown: Fc of the bought chimera", "T4 sequence (P08581 25-932, change not shown)": "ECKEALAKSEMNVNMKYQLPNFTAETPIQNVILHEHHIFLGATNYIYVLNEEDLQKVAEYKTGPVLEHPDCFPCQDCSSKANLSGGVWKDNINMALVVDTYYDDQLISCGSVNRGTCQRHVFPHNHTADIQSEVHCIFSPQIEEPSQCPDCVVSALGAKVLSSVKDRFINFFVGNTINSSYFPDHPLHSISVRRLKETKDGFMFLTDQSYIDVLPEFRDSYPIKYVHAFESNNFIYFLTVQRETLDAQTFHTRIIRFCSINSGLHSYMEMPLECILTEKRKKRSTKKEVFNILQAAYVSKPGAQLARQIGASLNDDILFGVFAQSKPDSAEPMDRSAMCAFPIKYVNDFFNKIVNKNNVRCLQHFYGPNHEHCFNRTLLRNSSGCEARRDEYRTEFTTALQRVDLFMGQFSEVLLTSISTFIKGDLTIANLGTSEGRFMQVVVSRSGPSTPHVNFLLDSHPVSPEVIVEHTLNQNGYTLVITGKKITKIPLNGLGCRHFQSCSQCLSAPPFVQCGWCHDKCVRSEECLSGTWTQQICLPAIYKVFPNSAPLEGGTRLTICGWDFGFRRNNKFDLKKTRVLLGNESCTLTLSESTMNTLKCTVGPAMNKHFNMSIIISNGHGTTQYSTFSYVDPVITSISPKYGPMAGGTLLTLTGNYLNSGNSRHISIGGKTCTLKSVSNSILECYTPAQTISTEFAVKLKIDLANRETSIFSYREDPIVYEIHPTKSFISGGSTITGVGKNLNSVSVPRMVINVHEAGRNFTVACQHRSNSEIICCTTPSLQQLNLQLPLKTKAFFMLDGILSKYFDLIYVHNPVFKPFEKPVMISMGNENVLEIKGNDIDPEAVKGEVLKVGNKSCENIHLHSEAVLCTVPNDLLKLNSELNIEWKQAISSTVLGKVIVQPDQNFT", "assay": "ECL Multispot (MSD) assay; antigen spotted on plate, Fab in solution;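 note: fab bound 1 h at 20 °C, detected by TAG-labelled antibody electrochemiluminescence, signal relative to each well's blank, ratio of 4 or more marks a hit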", "values": [
      {"binder": "B1", "ECL signal": 333},
      {"binder": "B2", "ECL signal": 377},
      {"binder": "B3", "ECL signal": 432},
      {"binder": "B4", "ECL signal": 355},
      {"binder": "B5", "ECL signal": 223},
      {"binder": "B6", "ECL signal": 317},
      {"binder": "B7", "ECL signal": 318}
    ]},
    {"molecular_target": "T5, rHuman ErbB2/Fc Chimera, CF (human, UniProt P04626 23-652)", "T5 construct": "Bought from R&D Systems; also called human epidermal growth factor 2 receptor; not shown: Fc of the bought chimera", "assay": "ECL Multispot (MSD) assay; antigen spotted on plate, Fab in solution", "values": [
      {"binder": "B1", "ECL signal": 334},
      {"binder": "B2", "ECL signal": 348},
      {"binder": "B3", "ECL signal": 333},
      {"binder": "B4", "ECL signal": 270},
      {"binder": "B5", "ECL signal": 242},
      {"binder": "B6", "ECL signal": 222},
      {"binder": "B7", "ECL signal": 427}
    ]},
    {"molecular_target": "T6, rHuman P-Cadherin/Fc Chimera, CF (human, UniProt P22223 108-654)", "T6 construct": "Bought from R&D Systems; not shown: Fc of the bought chimera", "assay": "ECL Multispot (MSD) assay; antigen spotted on plate, Fab in solution", "values": [
      {"binder": "B1", "ECL signal": 491},
      {"binder": "B2", "ECL signal": 521},
      {"binder": "B3", "ECL signal": 368},
      {"binder": "B4", "ECL signal": 443},
      {"binder": "B5", "ECL signal": 336},
      {"binder": "B6", "ECL signal": 418},
      {"binder": "B7", "ECL signal": 605}
    ]},
    {"molecular_target": "T7, rHuman IGF-1 sR, (IGF-1 sR), CF (human, UniProt P08069 31-932)", "T7 construct": "Bought from R&D Systems; also called insulin-like growth factor-1 soluble receptor", "assay": "ECL Multispot (MSD) assay; antigen spotted on plate, Fab in solution", "method": "(§1) An 150 μl aliquot of 1% Bovine Serum Albumin (BSA) in Tris-buffered Saline Tween (TBST) was added to each well and allowed to incubate for 30 min at 20° C. followed by washing and tap drying to completely remove any residual solution. Subsequently, a 12.5 μl aliquot of 1% BSA TBST was added to each well followed by the addition of a 12.5 μl aliquot of a purified Fab. The plate was sealed and incubated for 1 hour at 20° C. with shaking\n(§2) TAG-detection antibody at 25 μl was added to each well and allowed to incubate for 1 hour at 20° C. with shaking. Finally, 15 μl of Read Buffer P with Surfactant (Cat # R92PC-1, Meso Scale Discovery) was added to each well. The electrochemiluminescence was measured using a Sector Imager 2400 (Meso Scale Discovery). Data was analyzed by comparing the ECL signals for an antigen to the blank of each well. A signal to blank ratio of 4 or more was considered a “Hit” Fab.", "values": [
      {"binder": "B1", "ECL signal": 360},
      {"binder": "B2", "ECL signal": 378},
      {"binder": "B3", "ECL signal": 386},
      {"binder": "B4", "ECL signal": 348},
      {"binder": "B5", "ECL signal": 275},
      {"binder": "B6", "ECL signal": 346},
      {"binder": "B7", "ECL signal": 392}
    ]},
    {"molecular_target": "T8, rHuman CD44/Fc Chimera, CF (human, UniProt P16070 21-220)", "T8 construct": "Bought from R&D Systems; not shown: Fc of the bought chimera", "assay": "ECL Multispot (MSD) assay; antigen spotted on plate, Fab in solution", "values": [
      {"binder": "B1", "ECL signal": 436},
      {"binder": "B2", "ECL signal": 502},
      {"binder": "B4", "ECL signal": 464},
      {"binder": "B5", "ECL signal": 402},
      {"binder": "B6", "ECL signal": 365},
      {"binder": "B7", "ECL signal": 365}
    ]},
    {"molecular_target": "T9, Recombinant Human DLL4 (human, UniProt Q9NR61 27-524)", "T9 construct": "Bought from R&D Systems; also called delta-like protein 4; rHuman DLL4", "assay": "ECL Multispot (MSD) assay; antigen spotted on plate, Fab in solution", "method": "as §1, §2", "values": [
      {"binder": "B1", "ECL signal": 183000},
      {"binder": "B2", "ECL signal": 157000},
      {"binder": "B3", "ECL signal": 182000},
      {"binder": "B4", "ECL signal": 124000},
      {"binder": "B5", "ECL signal": 134000},
      {"binder": "B6", "ECL signal": 72300},
      {"binder": "B7", "ECL signal": 178000}
    ]}
  ]
}
